Test results reported in the supplement of paper PMC9732359.
± gives the uncertainty stated by the source.

Assay: protein stability index of a GFP-peptide fusion (yeast GPS) (PSI 1-4); higher = more stable; sorted into four equal gates, so the index is relative within each strain
In short: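 The protein stability index combines read frequencies across sorting gates, each weighted by its gate number and then summed. To obtain those frequencies, a pooled yeast library of GFP fusions to tiled 17-residue yeast protein peptides, on a plasmid also expressing Cherry, was grown to mid-log phase in leucine-free medium. The cells were sorted into four equal gates by GFP/Cherry ratio before plasmid amplification by PCR and Illumina sequencing.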

MAQRVTFRRRNPYNTRS [RPL34A]
protein stability index (doa10∆): 1.55 ± 0.043
protein stability index (pdr5∆): 1.82 ± 0.047
protein stability index (san1∆): 1.54 ± 0.072
protein stability index (ubr1∆): 1.77 ± 0.043

YSIALSNVAAIFKGIGG [GAL11]
protein stability index (doa10∆): 1.52 ± 0.08
protein stability index (pdr5∆): 1.55 ± 0.076
protein stability index (san1∆): 1.38 ± 0.18
protein stability index (ubr1∆): 1.48 ± 0.048

PWGDYLQLETPAEVGRA [BRR2]
protein stability index (doa10∆): 1.25 ± 0.062
protein stability index (pdr5∆): 1.8 ± 0.09
protein stability index (san1∆): 1.47 ± 0.088
protein stability index (ubr1∆): 1.19 ± 0.049

TCVSMAPIQLKIDLLSG [RGR1]
protein stability index (doa10∆): 1.67 ± 0.046
protein stability index (pdr5∆): 1.84 ± 0.062
protein stability index (san1∆): 1.87 ± 0.081
protein stability index (ubr1∆): 2 ± 0.038

QARMMQQQSADHDDSTD [NSL1]
protein stability index (doa10∆): 2.76 ± 0.051
protein stability index (pdr5∆): 2.74 ± 0.058
protein stability index (san1∆): 2.62 ± 0.052
protein stability index (ubr1∆): 2.76 ± 0.039

LVCGNDSSYQDIFAVNL [RET1]
protein stability index (pdr5∆): 2.04 ± 0.25
protein stability index (san1∆): 2.24 ± 0.26

KMYSDDTLKDISTSFCF [BRN1]
protein stability index (doa10∆): 3.36 ± 0.086
protein stability index (pdr5∆): 3.33 ± 0.067
protein stability index (san1∆): 3.42 ± 0.039
protein stability index (ubr1∆): 3.22 ± 0.067

TIHRSFTICLNDRNPRL [CSN12]
protein stability index (doa10∆): 2.82 ± 0.065
protein stability index (pdr5∆): 2.76 ± 0.063
protein stability index (san1∆): 2.72 ± 0.069
protein stability index (ubr1∆): 2.65 ± 0.043

DQFITSLKCTDPYELKG [ITC1]
protein stability index (doa10∆): 3.02 ± 0.12
protein stability index (pdr5∆): 2.66 ± 0.09
protein stability index (san1∆): 2.78 ± 0.088
protein stability index (ubr1∆): 2.95 ± 0.1

TGKERSKKRKLNSLTNL [SNM1]
protein stability index (doa10∆): 2.41 ± 0.11
protein stability index (pdr5∆): 3.04 ± 0.093
protein stability index (san1∆): 2.89 ± 0.075
protein stability index (ubr1∆): 2.67 ± 0.13

TIFSVMVEWLESRSFSP [PRP8]
protein stability index (doa10∆): 2.13 ± 0.077
protein stability index (pdr5∆): 1.99 ± 0.094
protein stability index (san1∆): 2.15 ± 0.15
protein stability index (ubr1∆): 1.88 ± 0.059

SLTYKKISLRDICLKLN [RPN3]
protein stability index (doa10∆): 2.38 ± 0.05
protein stability index (pdr5∆): 2.17 ± 0.047
protein stability index (san1∆): 1.44 ± 0.13
protein stability index (ubr1∆): 2.05 ± 0.04

MEWPKDMLKYKEDEPVV [ITC1]
protein stability index (doa10∆): 2.75 ± 0.27
protein stability index (pdr5∆): 3.12 ± 0.14
protein stability index (san1∆): 3.36 ± 0.09
protein stability index (ubr1∆): 3.67 ± 0.17

KVAHTSYKRIYGEYPPT [PRE8]
protein stability index (doa10∆): 3.02 ± 0.062
protein stability index (pdr5∆): 3.14 ± 0.068
protein stability index (san1∆): 3.01 ± 0.085
protein stability index (ubr1∆): 3.09 ± 0.049

IEEQGWGGFPLDISVFL [TAF14]
protein stability index (doa10∆): 3.38 ± 0.063
protein stability index (pdr5∆): 3.4 ± 0.053
protein stability index (san1∆): 3.35 ± 0.048
protein stability index (ubr1∆): 3.33 ± 0.047

NSISSQPASYHSVQETN [SSN2]
protein stability index (doa10∆): 2.22 ± 0.049
protein stability index (pdr5∆): 2.54 ± 0.058
protein stability index (san1∆): 2.88 ± 0.068
protein stability index (ubr1∆): 2.69 ± 0.052

GIKKHSLWRRTVYSLSQ [YDL116W/NUP84]
protein stability index (doa10∆): 1.44 ± 0.066
protein stability index (pdr5∆): 1.29 ± 0.071
protein stability index (san1∆): 1.29 ± 0.14
protein stability index (ubr1∆): 1.48 ± 0.041

VYVTGGRNLGRIGTIVH [RPS4A]
protein stability index (doa10∆): 3.02 ± 0.21
protein stability index (pdr5∆): 2.8 ± 0.18
protein stability index (san1∆): 3.18 ± 0.084
protein stability index (ubr1∆): 3.4 ± 0.13

SATSKPAFSFGAKPEEK [YJL041W/NSP1]
protein stability index (doa10∆): 3.1 ± 0.15
protein stability index (pdr5∆): 3.31 ± 0.22
protein stability index (san1∆): 3.16 ± 0.11
protein stability index (ubr1∆): 2.55 ± 0.14

GVTSLGIKATNGVVIAT [PRE8]
protein stability index (doa10∆): 2.82 ± 0.14
protein stability index (pdr5∆): 2.62 ± 0.16
protein stability index (san1∆): 3.05 ± 0.1
protein stability index (ubr1∆): 3.28 ± 0.29

LFGSPPFILEYDLMAPN [YMR129W/POM152]
protein stability index (doa10∆): 2.74 ± 0.075
protein stability index (pdr5∆): 2.9 ± 0.094
protein stability index (ubr1∆): 2.94 ± 0.074

STAAAPIAAPKKPRKPR [PGD1]
protein stability index (doa10∆): 2.72 ± 0.086
protein stability index (pdr5∆): 3.11 ± 0.076
protein stability index (san1∆): 2.75 ± 0.057
protein stability index (ubr1∆): 3.15 ± 0.039

HLIPNEIKGASETPLQK [RPN4]
protein stability index (pdr5∆): 1.57 ± 0.12
protein stability index (san1∆): 1.55 ± 0.13
protein stability index (ubr1∆): 1.91 ± 0.11

LGLEYIIRLLPINLENN [SRB8]
protein stability index (doa10∆): 1.67 ± 0.07
protein stability index (pdr5∆): 1.33 ± 0.058
protein stability index (san1∆): 1.24 ± 0.096
protein stability index (ubr1∆): 1.39 ± 0.061

FGKTVKDGPFYTGSMSL [RPC31]
protein stability index (doa10∆): 2.92 ± 0.15
protein stability index (pdr5∆): 3.17 ± 0.11
protein stability index (san1∆): 2.81 ± 0.086
protein stability index (ubr1∆): 2.98 ± 0.1

SNGIFYGPSFTKRESLN [SIR2]
protein stability index (doa10∆): 2.85 ± 0.065
protein stability index (pdr5∆): 2.83 ± 0.045
protein stability index (san1∆): 2.65 ± 0.056
protein stability index (ubr1∆): 3.07 ± 0.039

NTIRQNVTSSGDHNKLR [YML103C/NUP188]
protein stability index (doa10∆): 3.12 ± 0.17
protein stability index (pdr5∆): 3.04 ± 0.16
protein stability index (san1∆): 3.21 ± 0.075
protein stability index (ubr1∆): 2.98 ± 0.097

LVVIRFGRKNDRQCMIM [DIB1]
protein stability index (doa10∆): 2.4 ± 0.061
protein stability index (pdr5∆): 2.55 ± 0.055
protein stability index (san1∆): 2.33 ± 0.073
protein stability index (ubr1∆): 2.79 ± 0.038

VQESGNIDYQKGLLIWR [GRR1]
protein stability index (doa10∆): 3.35 ± 0.091
protein stability index (pdr5∆): 3.13 ± 0.1
protein stability index (san1∆): 3.37 ± 0.1
protein stability index (ubr1∆): 2.75 ± 0.079

SSFTFGSTTIEKKNDEN [YLR335W/NUP2]
protein stability index (doa10∆): 2.79 ± 0.084
protein stability index (pdr5∆): 2.49 ± 0.094
protein stability index (san1∆): 3.08 ± 0.063
protein stability index (ubr1∆): 2.99 ± 0.046

ALIDTEFANFELKDICS [YML103C/NUP188]
protein stability index (doa10∆): 2.12 ± 0.063
protein stability index (pdr5∆): 2.49 ± 0.06
protein stability index (san1∆): 2.65 ± 0.063
protein stability index (ubr1∆): 2.16 ± 0.037

KEIYTTLGNQMLSAHNI [YJR042W/NUP85]
protein stability index (doa10∆): 2.85 ± 0.099
protein stability index (pdr5∆): 2.82 ± 0.077
protein stability index (san1∆): 3.12 ± 0.079
protein stability index (ubr1∆): 3.08 ± 0.063

QGVYGAVYETLISRMIF [BRR2]
protein stability index (doa10∆): 2.46 ± 0.11
protein stability index (pdr5∆): 1.81 ± 0.093
protein stability index (san1∆): 1.36 ± 0.15
protein stability index (ubr1∆): 1.67 ± 0.045

FVSSLSNTSTLKNMLYV [BRR2]
protein stability index (doa10∆): 1.88 ± 0.058
protein stability index (pdr5∆): 2.08 ± 0.049
protein stability index (san1∆): 1.85 ± 0.064
protein stability index (ubr1∆): 2.18 ± 0.036

YGEYPPTKLLVSEVAKI [PRE8]
protein stability index (doa10∆): 2.53 ± 0.084
protein stability index (pdr5∆): 2.81 ± 0.13
protein stability index (san1∆): 2.67 ± 0.12
protein stability index (ubr1∆): 2.93 ± 0.078

ANATAAESDVAKQLAAL [RPL16A]
protein stability index (doa10∆): 3 ± 0.043
protein stability index (pdr5∆): 2.84 ± 0.061
protein stability index (san1∆): 3.19 ± 0.046
protein stability index (ubr1∆): 3.23 ± 0.05

ENANAANNGAAFSPLTT [MED2]
protein stability index (doa10∆): 3.1 ± 0.11
protein stability index (pdr5∆): 2.92 ± 0.1
protein stability index (san1∆): 2.88 ± 0.1
protein stability index (ubr1∆): 2.79 ± 0.057

QFNEFIQIMANIDQEGS [PGD1]
protein stability index (doa10∆): 2.29 ± 0.073
protein stability index (pdr5∆): 2.37 ± 0.067
protein stability index (san1∆): 2.33 ± 0.072
protein stability index (ubr1∆): 2.54 ± 0.049

FRVQSQSNYGIYSSDAQ [NUT1]
protein stability index (doa10∆): 2.03 ± 0.053
protein stability index (pdr5∆): 2.51 ± 0.059
protein stability index (san1∆): 1.8 ± 0.074
protein stability index (ubr1∆): 2.42 ± 0.1

SKVSKQQAKGAFQKVAA [RPL24B]
protein stability index (doa10∆): 2.45 ± 0.042
protein stability index (pdr5∆): 2.97 ± 0.043
protein stability index (san1∆): 2.78 ± 0.036
protein stability index (ubr1∆): 2.65 ± 0.036

SDVLLFQLPTTCVSMAP [RGR1]
protein stability index (doa10∆): 2.25 ± 0.047
protein stability index (pdr5∆): 1.83 ± 0.036
protein stability index (san1∆): 1.87 ± 0.05
protein stability index (ubr1∆): 1.77 ± 0.028

EDDNTPAGHAGNPTNIS [YDL088C/ASM4]
protein stability index (doa10∆): 2.87 ± 0.076
protein stability index (pdr5∆): 2.88 ± 0.063
protein stability index (san1∆): 2.91 ± 0.052
protein stability index (ubr1∆): 3.1 ± 0.046

LLSENRSEKSTTNAQTK [SRP54]
protein stability index (doa10∆): 2.86 ± 0.15
protein stability index (pdr5∆): 2.84 ± 0.099
protein stability index (san1∆): 2.88 ± 0.09
protein stability index (ubr1∆): 2.92 ± 0.064

SKEQIHGSIIILGMLSL [YCS4]
protein stability index (doa10∆): 2.45 ± 0.053
protein stability index (pdr5∆): 2.32 ± 0.05
protein stability index (san1∆): 2.72 ± 0.049
protein stability index (ubr1∆): 2.82 ± 0.045

AISTDKINPFGFEQVKI [RRI2]
protein stability index (doa10∆): 2.75 ± 0.056
protein stability index (pdr5∆): 2.94 ± 0.05
protein stability index (san1∆): 2.72 ± 0.061
protein stability index (ubr1∆): 2.86 ± 0.061

DSLTRAVKDQQKYTKEM [SNF2]
protein stability index (doa10∆): 1.47 ± 0.19
protein stability index (pdr5∆): 1.8 ± 0.11
protein stability index (san1∆): 1.25 ± 0.15

EPIEESSQNNSELAPIE [IRR1]
protein stability index (doa10∆): 2.89 ± 0.2
protein stability index (pdr5∆): 2.9 ± 0.13
protein stability index (san1∆): 2.73 ± 0.26
protein stability index (ubr1∆): 2.73 ± 0.095

RGREEAASFKKLYKTPI [PRE10]
protein stability index (doa10∆): 2.6 ± 0.17
protein stability index (pdr5∆): 3.06 ± 0.27
protein stability index (san1∆): 1.45 ± 0.2
protein stability index (ubr1∆): 2.97 ± 0.13

VSLGTSIMAVTFKDGVI [PRE3]
protein stability index (doa10∆): 3.55 ± 0.12
protein stability index (pdr5∆): 3.12 ± 0.18
protein stability index (san1∆): 3.27 ± 0.075
protein stability index (ubr1∆): 3.6 ± 0.074

NSSNYFGELQFAFLNAM [AAR2]
protein stability index (doa10∆): 2.86 ± 0.088
protein stability index (pdr5∆): 2.94 ± 0.071
protein stability index (san1∆): 2.69 ± 0.071
protein stability index (ubr1∆): 2.89 ± 0.054

TSFDRTKKTITPMGGFV [RPL3]
protein stability index (doa10∆): 3.04 ± 0.12
protein stability index (pdr5∆): 3.03 ± 0.12
protein stability index (san1∆): 2.79 ± 0.089
protein stability index (ubr1∆): 3.21 ± 0.24

PKNSSSPVQIAFNRFMA [SSN8]
protein stability index (doa10∆): 1.51 ± 0.053
protein stability index (pdr5∆): 1.74 ± 0.05
protein stability index (san1∆): 1.52 ± 0.1
protein stability index (ubr1∆): 1.57 ± 0.054

KDGSNPRTLIGHRATVT [RPN14]
protein stability index (pdr5∆): 3.31 ± 0.26
protein stability index (san1∆): 3.07 ± 0.14
